Measured values taken from patent publication US20230357838.

How the values were obtained:
MGYPDa20 (unidentified) = tested on: T1, MGYPDa20 (unidentified); settings: 5mC 0.049, 5hmC 0.021
T1 sequence: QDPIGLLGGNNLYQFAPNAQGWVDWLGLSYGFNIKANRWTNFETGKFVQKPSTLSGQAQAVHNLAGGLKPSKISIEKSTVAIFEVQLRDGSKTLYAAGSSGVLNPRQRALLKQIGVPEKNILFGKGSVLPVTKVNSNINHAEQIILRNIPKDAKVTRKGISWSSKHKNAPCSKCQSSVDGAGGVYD

MGYPDa26 (unidentified) = tested on: T2, MGYPDa26 (unidentified)
T2 sequence: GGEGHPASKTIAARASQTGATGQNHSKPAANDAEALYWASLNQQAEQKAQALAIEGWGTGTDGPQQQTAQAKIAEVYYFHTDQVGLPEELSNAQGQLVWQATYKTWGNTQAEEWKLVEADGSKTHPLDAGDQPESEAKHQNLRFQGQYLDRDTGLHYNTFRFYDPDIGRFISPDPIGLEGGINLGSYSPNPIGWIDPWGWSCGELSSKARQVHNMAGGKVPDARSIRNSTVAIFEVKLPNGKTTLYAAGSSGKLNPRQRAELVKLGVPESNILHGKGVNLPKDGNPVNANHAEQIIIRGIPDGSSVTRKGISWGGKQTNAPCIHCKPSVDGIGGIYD

AncDa04 = tested on: T3, AncDa04
T3 sequence: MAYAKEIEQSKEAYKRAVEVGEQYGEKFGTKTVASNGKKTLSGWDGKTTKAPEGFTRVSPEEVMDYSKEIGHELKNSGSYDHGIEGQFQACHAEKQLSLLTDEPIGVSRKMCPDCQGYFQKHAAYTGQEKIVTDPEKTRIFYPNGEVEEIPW

MGYPDa16 (unidentified) = tested on: T4, MGYPDa16 (unidentified)
T4 sequence: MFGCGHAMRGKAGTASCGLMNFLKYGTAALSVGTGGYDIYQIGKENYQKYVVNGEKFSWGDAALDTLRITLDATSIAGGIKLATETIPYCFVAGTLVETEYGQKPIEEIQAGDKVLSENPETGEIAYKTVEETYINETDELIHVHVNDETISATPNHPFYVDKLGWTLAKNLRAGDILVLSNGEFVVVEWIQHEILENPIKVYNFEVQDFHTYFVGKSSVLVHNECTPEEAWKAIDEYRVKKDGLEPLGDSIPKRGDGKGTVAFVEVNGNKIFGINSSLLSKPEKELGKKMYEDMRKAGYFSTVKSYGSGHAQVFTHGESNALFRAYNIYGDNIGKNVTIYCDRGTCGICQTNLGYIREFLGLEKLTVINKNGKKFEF

[1] = tested on: T5, CsDa01 (Chitinophaga silvisoli)
T5 sequence: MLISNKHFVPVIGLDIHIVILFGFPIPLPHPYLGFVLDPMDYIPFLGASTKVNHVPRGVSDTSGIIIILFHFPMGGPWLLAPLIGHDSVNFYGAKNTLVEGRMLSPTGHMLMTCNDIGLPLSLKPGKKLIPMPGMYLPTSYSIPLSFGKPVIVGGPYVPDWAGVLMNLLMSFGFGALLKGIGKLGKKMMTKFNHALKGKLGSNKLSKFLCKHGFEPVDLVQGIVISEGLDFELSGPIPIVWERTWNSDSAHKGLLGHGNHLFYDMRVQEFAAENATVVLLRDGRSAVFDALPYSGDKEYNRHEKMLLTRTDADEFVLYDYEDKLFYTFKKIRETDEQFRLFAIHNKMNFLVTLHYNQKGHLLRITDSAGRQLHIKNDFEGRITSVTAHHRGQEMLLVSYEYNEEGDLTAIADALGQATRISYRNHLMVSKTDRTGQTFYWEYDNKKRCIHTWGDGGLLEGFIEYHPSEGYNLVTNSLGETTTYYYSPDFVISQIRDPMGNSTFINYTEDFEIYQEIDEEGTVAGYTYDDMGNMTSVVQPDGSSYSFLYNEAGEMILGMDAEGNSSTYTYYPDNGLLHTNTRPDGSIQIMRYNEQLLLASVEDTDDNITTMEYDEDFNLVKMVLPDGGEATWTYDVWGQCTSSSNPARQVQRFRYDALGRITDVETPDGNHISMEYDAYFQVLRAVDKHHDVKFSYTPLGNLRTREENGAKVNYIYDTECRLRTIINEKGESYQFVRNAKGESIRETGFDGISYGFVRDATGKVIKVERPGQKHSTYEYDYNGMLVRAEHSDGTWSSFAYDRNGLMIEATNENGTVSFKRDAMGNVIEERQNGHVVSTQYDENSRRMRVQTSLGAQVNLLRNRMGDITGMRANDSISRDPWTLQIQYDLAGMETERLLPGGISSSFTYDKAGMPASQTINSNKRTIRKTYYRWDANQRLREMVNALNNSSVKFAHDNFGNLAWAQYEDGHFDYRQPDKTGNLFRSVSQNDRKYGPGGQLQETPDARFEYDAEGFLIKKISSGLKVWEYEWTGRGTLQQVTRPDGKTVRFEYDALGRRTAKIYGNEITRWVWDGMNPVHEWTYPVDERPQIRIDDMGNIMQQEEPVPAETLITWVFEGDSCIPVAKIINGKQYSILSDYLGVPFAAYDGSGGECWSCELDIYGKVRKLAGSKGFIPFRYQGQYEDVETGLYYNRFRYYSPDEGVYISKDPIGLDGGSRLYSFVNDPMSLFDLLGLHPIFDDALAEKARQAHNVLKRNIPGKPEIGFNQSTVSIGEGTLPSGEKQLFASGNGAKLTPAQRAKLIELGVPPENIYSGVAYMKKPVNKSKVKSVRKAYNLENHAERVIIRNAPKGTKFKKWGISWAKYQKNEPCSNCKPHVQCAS

[2] = tested on: T6, RaDa01 (Ruminococcus sp.)
T6 sequence: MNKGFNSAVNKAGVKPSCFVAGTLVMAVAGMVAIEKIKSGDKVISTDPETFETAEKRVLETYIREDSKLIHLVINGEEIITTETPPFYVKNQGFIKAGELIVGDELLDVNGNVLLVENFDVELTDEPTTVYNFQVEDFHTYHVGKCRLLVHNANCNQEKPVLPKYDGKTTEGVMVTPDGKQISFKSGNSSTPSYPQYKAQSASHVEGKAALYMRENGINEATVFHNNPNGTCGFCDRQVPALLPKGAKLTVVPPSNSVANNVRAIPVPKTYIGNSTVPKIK

MGYPDa829 = tested on: T7, MGYPDa829
T7 sequence: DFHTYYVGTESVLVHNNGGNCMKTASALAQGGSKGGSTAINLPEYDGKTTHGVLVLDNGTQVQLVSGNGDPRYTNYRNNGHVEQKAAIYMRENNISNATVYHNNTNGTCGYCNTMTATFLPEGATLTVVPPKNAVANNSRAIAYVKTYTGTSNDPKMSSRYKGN

[3] = tested on: AshDa01 (Amycolatopsis sp.); settings: CG 0.699, CH 0.193
APOBEC3A = APOBEC3A (UniProt P31941); settings: ssDNA deaminase control
Chain of APOBEC3A (P31941 other isoform, or with tags, fused parts or gaps): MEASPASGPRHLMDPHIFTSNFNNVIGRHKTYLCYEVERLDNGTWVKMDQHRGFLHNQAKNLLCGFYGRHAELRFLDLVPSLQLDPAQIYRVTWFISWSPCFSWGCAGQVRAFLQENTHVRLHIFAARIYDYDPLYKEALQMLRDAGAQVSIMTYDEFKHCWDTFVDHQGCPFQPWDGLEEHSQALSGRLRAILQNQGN

[4] = tested on: T8, d38_MGYPDa829 (unidentified)
T8 sequence: T7 sequence

Substance: unmodified dsDNA (E. coli C2566 genomic)
- activity (fraction deaminated) (MGYPDa20 (unidentified)): 0.857
- activity (fraction deaminated) (MGYPDa26 (unidentified)): 0.929
- activity (fraction deaminated) (AncDa04): 0.992
- activity (fraction deaminated) (MGYPDa16 (unidentified)): 0.78
- activity (fraction deaminated) [1]: 0.913
- activity (fraction deaminated) [2]: 0.465
- activity (fraction deaminated) (MGYPDa829): 0.956
- activity (fraction deaminated) [3]: 0.342
- activity (fraction deaminated) (APOBEC3A): 0.331
- activity (fraction deaminated) [4]: 0.993
